The record followed here is the supplement of paper PMC10567573.

To fix the notation:
B1: SEC22B (parent)
chain: AKQLFRKLNEQSPTRCTLEAGAMT
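Further: lentivirally expressed fusions sorted by FACS into six bins by GFP to DsRed ratio, PSI derived from sequencing read proportions per bin multiplied by bin number.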

Variants of B1 are the subject of the data set. The experiment in a line: protein stability index of a GFP-peptide fusion (GPS, HEK-293T) (PSI 1-6); higher = more stable. The conditions noted are these: c terminus: a fixed tail appended.
Take AKQLFRKLNEQSPTHCTLEAGAMT: the protein stability index was determined as 3.44.

Turning to AKQLFRKLNEQSPTTCTLEAGAMT, the protein stability index came out at 2.67.

Regarding AKQLFRKLNEQSPTICTLEAGAMT, the protein stability index was 2.76.

On to AKQLFRKLNEQSPTLCTLEAGAMT, for which the protein stability index was determined as 3.03.

Turning to AKQLFRKLNEQSPTWCTLEAGAMT, the protein stability index worked out at 1.97.

Turning to AKQLFRKLNEQSPTACTLEAGAMT, the protein stability index was 3.03.

Consider AKQLFRKLNEQSPTPCTLEAGAMT, for which the protein stability index stood at 3.

Take AKQLFRKLNEVSPTRCTLEAGAMT: the protein stability index amounted to 1.48.

As for AKQLFRKLNEKSPTRCTLEAGAMT, the protein stability index was 1.96.

Consider AKQLFRKLNESSPTRCTLEAGAMT, for which the protein stability index worked out at 2.1.

For the variant AKQLFRKLNERSPTRCTLEAGAMT, the protein stability index worked out at 1.41.

Consider AKQLFRKLNEISPTRCTLEAGAMT, for which the protein stability index was determined as 1.71.

For AKQLFRKLNEWSPTRCTLEAGAMT, the protein stability index came out at 1.98.

For AKQLFRKLNEDSPTRCTLEAGAMT, the protein stability index is 2.44.

Take AKQLFRKLNELSPTRCTLEAGAMT: the protein stability index is 1.38.

For AKQLFRKLNETSPTRCTLEAGAMT, the protein stability index was 1.82.

For the variant AKQLFRKLNEPSPTRCTLEAGAMT, the protein stability index came to 2.09.

For AKQLFRKLNENSPTRCTLEAGAMT, the protein stability index stood at 2.22.

Regarding AKQLFRKLNEGSPTRCTLEAGAMT, the protein stability index is 2.14.

With AKQLFRKLNEFSPTRCTLEAGAMT, the protein stability index amounted to 1.65.

With AKQLFRKLNEASPTRCTLEAGAMT, the protein stability index amounted to 1.77.

Regarding AKQLFRKLNEMSPTRCTLEAGAMT, the protein stability index came out at 2.26.

With AKQLFRKLNEYSPTRCTLEAGAMT, the protein stability index stood at 1.35.

Regarding AKQLFRKLNEESPTRCTLEAGAMT, the protein stability index came out at 2.85.

In the case of AKQLFRKLNECSPTRCTLEAGAMT, the protein stability index worked out at 2.13.

AKQLFRKLNEHSPTRCTLEAGAMT: the protein stability index was 1.99.

Turning to AKQLFRKTNEQSPTRCTLEAGAMT, the protein stability index amounted to 2.89.

As for AKQLFRKWNEQSPTRCTLEAGAMT, the protein stability index was determined as 3.19.

On to AKQLFRKVNEQSPTRCTLEAGAMT, for which the protein stability index stood at 3.09.

In the case of AKQLFRKGNEQSPTRCTLEAGAMT, the protein stability index turned out to be 2.49.

Consider AKQLFRKANEQSPTRCTLEAGAMT, for which the protein stability index stood at 2.91.

Consider AKQLFRKCNEQSPTRCTLEAGAMT, for which the protein stability index turned out to be 2.35.

Take AKQLFRKQNEQSPTRCTLEAGAMT: the protein stability index is 3.08.

For the variant AKQLFRKYNEQSPTRCTLEAGAMT, the protein stability index was 1.91.

Consider AKQLFRKNNEQSPTRCTLEAGAMT, for which the protein stability index stood at 2.49.

In the case of AKQLFRKINEQSPTRCTLEAGAMT, the protein stability index was 2.1.

Take AKQLFRKSNEQSPTRCTLEAGAMT: the protein stability index was 2.35.

Take AKQLFRKMNEQSPTRCTLEAGAMT: the protein stability index was found to be 2.55.

On to AKQLFRKDNEQSPTRCTLEAGAMT, for which the protein stability index was found to be 3.66.

Consider AKQLFRKHNEQSPTRCTLEAGAMT, for which the protein stability index is 2.64.

Take AKQLFRKFNEQSPTRCTLEAGAMT: the protein stability index was found to be 2.

Regarding AKQLFRKPNEQSPTRCTLEAGAMT, the protein stability index amounted to 2.82.

For the variant AKQLFRKKNEQSPTRCTLEAGAMT, the protein stability index was determined as 3.07.

In the case of AKQLFRKRNEQSPTRCTLEAGAMT, the protein stability index is 3.84.

For the variant AKQLFRKENEQSPTRCTLEAGAMT, the protein stability index was found to be 3.13.

Consider AKQLFRKLNIQSPTRCTLEAGAMT, for which the protein stability index amounted to 2.7.

As for AKQLFRKLNRQSPTRCTLEAGAMT, the protein stability index came out at 2.22.

Regarding AKQLFRKLNGQSPTRCTLEAGAMT, the protein stability index was 2.13.

For AKQLFRKLNTQSPTRCTLEAGAMT, the protein stability index turned out to be 2.31.

Regarding AKQLFRKLNLQSPTRCTLEAGAMT, the protein stability index was 1.08.

Take AKQLFRKLNPQSPTRCTLEAGAMT: the protein stability index was found to be 1.34.

Regarding AKQLFRKLNHQSPTRCTLEAGAMT, the protein stability index worked out at 2.

As to AKQLFRKLNKQSPTRCTLEAGAMT, the protein stability index was found to be 1.65.

Consider AKQLFRKLNWQSPTRCTLEAGAMT, for which the protein stability index is 1.56.

For AKQLFRKLNCQSPTRCTLEAGAMT, the protein stability index worked out at 1.41.

Turning to AKQLFRKLNAQSPTRCTLEAGAMT, the protein stability index is 1.88.

With AKQLFRKLNVQSPTRCTLEAGAMT, the protein stability index was determined as 1.81.

With AKQLFRKLNFQSPTRCTLEAGAMT, the protein stability index was determined as 2.99.

For AKQLFRKLNDQSPTRCTLEAGAMT, the protein stability index worked out at 2.18.

AKQLFRKLNMQSPTRCTLEAGAMT: the protein stability index was 2.72.

With AKQLFRKLNSQSPTRCTLEAGAMT, the protein stability index came out at 2.89.

Take AKQLFRKLNQQSPTRCTLEAGAMT: the protein stability index was determined as 1.54.

As to AKQLFRKLNNQSPTRCTLEAGAMT, the protein stability index was found to be 1.95.

Turning to AKQLFRKLNYQSPTRCTLEAGAMT, the protein stability index came to 3.1.

Consider AKQLFRKLNEQCPTRCTLEAGAMT, for which the protein stability index was determined as 2.87.

AKQLFRKLNEQLPTRCTLEAGAMT: the protein stability index turned out to be 2.84.

Take AKQLFRKLNEQAPTRCTLEAGAMT: the protein stability index was 1.88.

With AKQLFRKLNEQWPTRCTLEAGAMT, the protein stability index was 1.77.

Consider AKQLFRKLNEQMPTRCTLEAGAMT, for which the protein stability index came out at 2.37.

Regarding AKQLFRKLNEQVPTRCTLEAGAMT, the protein stability index turned out to be 1.45.

For the variant AKQLFRKLNEQDPTRCTLEAGAMT, the protein stability index was determined as 3.51.

With AKQLFRKLNEQQPTRCTLEAGAMT, the protein stability index is 2.16.

In the case of AKQLFRKLNEQPPTRCTLEAGAMT, the protein stability index worked out at 1.68.

As for AKQLFRKLNEQRPTRCTLEAGAMT, the protein stability index is 1.4.

Regarding AKQLFRKLNEQHPTRCTLEAGAMT, the protein stability index was found to be 2.13.

With AKQLFRKLNEQIPTRCTLEAGAMT, the protein stability index worked out at 1.86.

For the variant AKQLFRKLNEQFPTRCTLEAGAMT, the protein stability index is 2.05.

As to AKQLFRKLNEQYPTRCTLEAGAMT, the protein stability index came out at 2.43.

Regarding AKQLFRKLNEQGPTRCTLEAGAMT, the protein stability index came to 2.14.

As to AKQLFRKLNEQTPTRCTLEAGAMT, the protein stability index amounted to 1.96.

For the variant AKQLFRKLNEQKPTRCTLEAGAMT, the protein stability index is 1.84.

Take AKQLFRKLNEQNPTRCTLEAGAMT: the protein stability index stood at 1.93.

Consider AKQLFRKLNEQEPTRCTLEAGAMT, for which the protein stability index amounted to 3.46.

AKQLFTKLNEQSPTRCTLEAGAMT: the protein stability index worked out at 2.27.

As for AKQLFNKLNEQSPTRCTLEAGAMT, the protein stability index came to 2.05.

Take AKQLFYKLNEQSPTRCTLEAGAMT: the protein stability index came out at 2.15.

In the case of AKQLFQKLNEQSPTRCTLEAGAMT, the protein stability index came to 2.67.

Turning to AKQLFWKLNEQSPTRCTLEAGAMT, the protein stability index came out at 2.12.

Consider AKQLFPKLNEQSPTRCTLEAGAMT, for which the protein stability index was determined as 2.51.

Turning to AKQLFSKLNEQSPTRCTLEAGAMT, the protein stability index worked out at 2.53.

In the case of AKQLFMKLNEQSPTRCTLEAGAMT, the protein stability index was determined as 1.75.

For AKQLFKKLNEQSPTRCTLEAGAMT, the protein stability index stood at 2.07.

Take AKQLFLKLNEQSPTRCTLEAGAMT: the protein stability index came to 2.99.

Regarding AKQLFVKLNEQSPTRCTLEAGAMT, the protein stability index amounted to 2.31.
